For the assay, the target named is α6 integrin (mouse) (UniProt Q61739). In words: cell-based or functional assay.
Sequence of UniProt Q61739 (Q61739 24-1091): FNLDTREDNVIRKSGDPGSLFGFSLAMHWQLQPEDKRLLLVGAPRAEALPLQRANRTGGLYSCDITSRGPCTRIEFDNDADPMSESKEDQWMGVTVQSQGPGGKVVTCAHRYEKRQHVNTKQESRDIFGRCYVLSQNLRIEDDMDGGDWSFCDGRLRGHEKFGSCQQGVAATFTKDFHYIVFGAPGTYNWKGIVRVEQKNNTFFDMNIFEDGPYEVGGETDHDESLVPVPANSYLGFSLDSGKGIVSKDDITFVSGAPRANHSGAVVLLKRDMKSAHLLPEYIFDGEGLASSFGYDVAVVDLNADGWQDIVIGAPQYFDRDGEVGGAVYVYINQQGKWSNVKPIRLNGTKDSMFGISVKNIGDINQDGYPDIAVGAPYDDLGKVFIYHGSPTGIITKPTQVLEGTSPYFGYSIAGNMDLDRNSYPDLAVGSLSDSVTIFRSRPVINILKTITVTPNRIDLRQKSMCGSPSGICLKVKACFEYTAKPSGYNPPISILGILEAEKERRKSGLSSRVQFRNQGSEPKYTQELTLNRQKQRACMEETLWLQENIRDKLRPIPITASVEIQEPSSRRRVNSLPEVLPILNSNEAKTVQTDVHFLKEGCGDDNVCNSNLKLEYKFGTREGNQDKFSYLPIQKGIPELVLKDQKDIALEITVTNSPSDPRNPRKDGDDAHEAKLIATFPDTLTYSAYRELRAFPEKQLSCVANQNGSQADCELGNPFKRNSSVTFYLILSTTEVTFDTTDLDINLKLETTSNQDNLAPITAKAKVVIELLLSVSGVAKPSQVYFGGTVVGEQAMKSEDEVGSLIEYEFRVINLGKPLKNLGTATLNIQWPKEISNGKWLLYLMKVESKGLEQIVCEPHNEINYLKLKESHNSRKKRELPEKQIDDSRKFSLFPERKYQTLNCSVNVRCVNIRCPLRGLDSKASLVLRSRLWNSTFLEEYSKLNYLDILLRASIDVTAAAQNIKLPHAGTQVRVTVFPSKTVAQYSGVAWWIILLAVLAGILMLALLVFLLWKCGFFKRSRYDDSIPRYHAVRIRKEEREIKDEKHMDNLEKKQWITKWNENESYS

“Rat monoclonal antibody (clone NKI-GoH3, IgG2a)” had a total cell number per well (13.5 dpc fetal mouse pancreas cells cultured with laminin-1) (cells per well) of 7190 and a β cell number per well (13.5 dpc fetal mouse pancreas cells cultured with laminin-1) (cells per well) of 6890.

The record behind these values is patent US20020072115A1.
